Patent US20220298257A1 (ELPIS BIOPHARMACEUTICALS, published 2022)
Substitutions are numbered along the chain they refer to.

B1: EP97-B03 scFv (scFv)
scFv: QLVQSGAEVKKPGASVKVSCKASGYTFSSYGITWVRQAPGQGLEWMGWISAYNGNTNYAQKFQGRVTLTTDTSTSIAYMELRSLTSDDTAVYYCATGGQEDYWGQGTLVTVSSGGGGSGGGGSGGGGSEIVLTQSPATLSVSPGERATLSCRASQSVSSNLAWYQQKPGQAPRLLIYGASTRATGIPARFSGSGSGTEFTLTISSLQSEDFAVYYCQQYNSWPPLTFGGGTKVEIK
notes: VH-VL orientation; not shown: C-terminal flag and 6xHIS tag
B2: EP35-E6 scFv (scFv)
scFv: QVQLVESGGALVQPGGSLRLSCVVSGFPFSTAWMNWVRQAPGKGLEWVARIKSEAHGGTTHYAPPVQGRFTISRDDSKNTVSLQMNSLKTEDTGVYYCGDFQWGQGTLVTVSSGGGGSGGGGSGGGGSVIWMTQSPSSLSASVGDRITITCQASQDISNFLNWYQQKPGEAPKLLLYDASNLERGVPSRFSGGGSGTDFTLTISSLQPEDIATYFCQQYDNLPLTFGGGTKVEIK
notes: as for B1
B3: EP35-A7 scFv (scFv)
scFv: EVQLVESRGGVVQPGGSLRLSCAASGFTFSSYGMHWVRQAPGKGLEWVAFIRYDGSNKYYADSVKGRFTISRDNSKNTLYLQMNSLRAEDTAVYYCAKETVTTNYYYYMDVWGKGTTVTVSSGGGGSGGGGSGGGGSDVVMTQSPLSLPVTLGQPASISCRSSRSLEYNDGNTYLNWFHQRPGQSPRRLIYKVSNRDSGVPDRFSGSGSDTDFTLKISRVEAEDVGIYYCMQGTHWPLTFGQGTRLEIK
notes: as for B1
B4: EP160-H02 scFv (scFv)
scFv: QVQLVQSGAEVKKPGASVKVSCKASGYTFTSYGISWVRQAPGQGLEWMGGIIAYNGNTNYAQKLQGRVTMTTDTSTSTAYMELRSLRSDDTAVYYCARDPPEYSSSAGTDYWGQGTLVTVSSGGGGSGGGGSGGGGSEIVMTQSPATLSVSPGEGVTLSCRASQSVSSNLAWYQQRPGQAPRLLIYGASIKATDVPDRFSGGGSGTDFTLSITNLQSEDFAVYYCQQYHTWSPVTFGGGTKVEIK
notes: as for B1
B5: EP35-C6 scFv (scFv)
scFv: QVQLVESGGGVVQPGGSLRLSCAASGFPFSRFGIHWVRQAPGKGLDWVAFIRTDGGSQHYADSVKGRFTISRDNSENMVYLQMNSLRVDDTALYYCAKDPPRVTGNTGYDYDWGQGVQVTVSSGGGGSGGGGSGGGGSDIVMTQSPDSLAVSLGERATINCKSSQSVLYSANNKNCLAWYQQKSGQPPKLLIYWASTRESGVPGRFSGSGSGTDFTLTISSLQAEDVAVYYCQQYYSPPRTFGQGTKLEIK
notes: VH-VL orientation; also called EP35-C06; not shown: C-terminal flag and 6xHIS tag
B6: EP35-D6 scFv (scFv)
scFv: QVQLVQSGTEVKKPGASVKVSCKASGYTFTNNAITWVRQAPGQGLEWMGYISTSSDNINYAQKFRGRLTLTTDTSTGTAYMELSSLRSDDTATYYCARDGIFGGRDDPWGQGTLVTVSSGGGGSGGGGSGGGGSDIVMTQSPSSLSASVGDRVTITCQASQDISNYLNWYQQKPGKAPKLLIYDASNLETGVPSRFSGSGSETDFTITISSLQPEDIATYYCQQYDNLPLTFGGGTKVR
notes: as for B1
B7: EP35-B05 scFv (scFv)
scFv: QVQLVQSGAEVKKPGASVKVSCKASGYTFTSYGISWVRQAPGQGLEWMGWISAYNGNTNYAQKLQGRVTMTTDTSTSTAYMELRSLRSDDTAVYYCARDSGNSPIDYWGQGTLVTVSSGGGGSGGGGSGGGGSEIVMTQSPATLSVSPGEGVTLSCRASQSVSSNLAWYQQRPGQAPRLLIYGASIKATDVPDRFSGGGSGTDFTLSISNLQSEDFAVYYCQQYHTWPPVTFGGGTKVEIK
notes: VH-VL orientation; also called EP35-B5; not shown: C-terminal flag and 6xHIS tag
B8: EP160-C07 scFv (scFv)
scFv: B7 scFv with V2M, S100A, G101V, N102A, S103G, P104S, I105R, D106G, M137L, G234E
notes: VH-VL orientation; also called EP160-007; not shown: C-terminal flag and 6xHIS tag
B9: EP35-C8 scFv (scFv)
scFv: B7 scFv with R87G, N102S, P104D, I105L, R172K, I181M, N210S
notes: VH-VL orientation; also called EP35-C08; not shown: C-terminal flag and 6xHIS tag
B10: EP97-F01 scFv (scFv)
scFv: B7 scFv with S100H, G101I, N102A, S103A, P104A, I105G, S209T
notes: as for B1
B11: EP97-A10 scFv (scFv)
scFv: QVQLVQSGAEVKRPGASVKVSCKASGYTFTSYGISWVRQAPGQGLEWMGWISAYNGNTNYAQKLQGRVTMTTDTSTSTAYMELRSLRSDDTAVYYCARDPGIAVAGTVDYWGQGTLVTVSSGGGGSGGGGSGGGGSEIVMTQSPATLSVSPGEGVTLSCRASQSVSSNLAWYQQRPGQAPRLLIYGASIKATDVPDRFSGGGSGTDFTLSISNVQSEDFAVYYCQQYHTWTPVTFGGGTKVEIK
notes: as for B1
B12: EP97-G05 scFv (scFv)
scFv: EVQLVQSGAEVKKPGASVKVSCKASGYTFTSYGISWVRQAPGQGLEWMGWISAYNGNTNYAQKLQGRVTMTTDTSTSTAYMELRSLRSDDTAVYYCARDYGDPSGDDYWGQGTLVTVSSGGGGSGGGGSGGGGSEIVLTQSPATLSVSPGEGVTLSCRASQSVSSNLAWYQQRPGQAPRLLIYGASIKATDVPDRFSGGGSGTDFTLSISNLQSEDFAVYYCQQYHTWPPVTFGGGTKVEIK
notes: VH-VL orientation; also called EP097-G05; not shown: C-terminal flag and 6xHIS tag
B13: EP160-E03 scFv (scFv)
scFv: EVQLVQSGGGVVQPGKSLRLSCAASGFTFSSYGMHWVRQAPGKGLEWVAVIWYDGSNKYYADSVKGRFTISRDNSKNTLYLQMNSLRAEDTAVYYCARDGWTGFDYWGQGTTVTVSSGGGGSGGGGSGGGGSEIVLTQSPATLSVSPGEGVTLSCRASQSVSSNLAWYQQRPGQAPRLLIYGASIKATDVPDRFSGGGSGTDFTLSISNLQSEDFAVYYCQQYHTWPPVTFGGGTKVEIK
notes: as for B1
B14: EP160-G05 scFv (scFv)
scFv: EVQLVQSGAEVKKPGASVKVSCKASGYTFTSYGISWVRQAPGQGLEWMGWISAYNGNTNYAQKLQGRVTMTTDTSTSTAYMELRSLRSDDTAVYYCARDPSMDVWGQGTTVTVSSGGGGSGGGGSGGGGSEIVLTQSPATLSVSPGERATLSCRASQSVSSNLAWYQQKPGQAPRLLIYGASTRATGIPARFSGSGSGTEFTLTISSLQSEDFAVYYCQQYNSWPPITFGQGTRLEIK
notes: as for B1
B15: EP35-F7 scFv (scFv)
scFv: B13 scFv with K16R, T102K
notes: also called EP35-F07; not shown: C-terminal flag and 6xHIS tag
B16: EP97-A01 scFv (scFv)
scFv: B13 scFv with K16R, R19K, T102K
notes: as for B1

Each binder was assayed against T1, full-length human CD22 fused with flag and Myc tags at the C-terminus, on HEK293 or K562 cells (human, UniProt P20273 20-847) (assay: FACS, scFv titrated on CD22-expressing cells, anti-His Alexa 488).
T1 construct: whole, on cells; also called CD22/K562; CD22/HEK293; not shown: C-terminal flag and Myc tags of the pCMV6-Entry vector
T1 sequence (looked up): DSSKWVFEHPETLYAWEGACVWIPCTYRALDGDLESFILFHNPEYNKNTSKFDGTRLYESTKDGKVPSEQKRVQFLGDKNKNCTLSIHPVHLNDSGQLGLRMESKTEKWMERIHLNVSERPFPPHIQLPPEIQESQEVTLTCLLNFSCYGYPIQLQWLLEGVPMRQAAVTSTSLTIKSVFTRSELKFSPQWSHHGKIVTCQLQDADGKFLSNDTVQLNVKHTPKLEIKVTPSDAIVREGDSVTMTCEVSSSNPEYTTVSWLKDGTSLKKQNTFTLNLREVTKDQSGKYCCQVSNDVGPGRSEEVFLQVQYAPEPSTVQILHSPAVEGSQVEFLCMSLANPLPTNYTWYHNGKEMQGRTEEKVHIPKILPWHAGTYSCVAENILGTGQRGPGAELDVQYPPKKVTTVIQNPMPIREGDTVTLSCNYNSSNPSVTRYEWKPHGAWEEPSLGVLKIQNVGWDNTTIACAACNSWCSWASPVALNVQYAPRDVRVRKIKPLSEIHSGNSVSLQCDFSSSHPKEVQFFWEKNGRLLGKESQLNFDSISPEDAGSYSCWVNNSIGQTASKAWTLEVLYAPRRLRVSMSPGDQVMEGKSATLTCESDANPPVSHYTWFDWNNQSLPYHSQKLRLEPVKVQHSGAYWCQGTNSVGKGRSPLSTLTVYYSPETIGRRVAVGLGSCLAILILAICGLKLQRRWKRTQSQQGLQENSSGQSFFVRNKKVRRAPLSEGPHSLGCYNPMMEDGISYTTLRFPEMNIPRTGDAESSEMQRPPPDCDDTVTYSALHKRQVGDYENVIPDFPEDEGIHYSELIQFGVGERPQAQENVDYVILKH

Row | Binder | EC50
1 | B1 | 0.7 nM
2 | B2 | 14.2 nM
3 | B3 | 10.4 nM
4 | B4 | 0.68 nM
5 | B5 | 19.3 nM
6 | B6 | 47 nM
7 | B7 | 77 nM
8 | B8 | 5.2 nM
9 | B9 | 4.6 nM
10 | B10 | 10 nM
11 | B11 | 1 nM
12 | B12 | 3.3 nM
13 | B13 | 6.8 nM
14 | B14 | 2.9 nM

These binders were tested against T2, human CD22-Fc fusion protein (human, UniProt P20273 20-687, limits assumed) (assay: SPR Biacore T200; CD22-Fc captured on Protein G chip, scFv as analyte;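 note: run in 1×HBST buffer, with the response of reference flow cell 1 subtracted from the CD22 capture cell and kinetics fitted in Biacore T200 evaluation software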).
T2 construct: also called recombinant CD22-Fc fusion protein; not shown: Fc part
T2 sequence (looked up): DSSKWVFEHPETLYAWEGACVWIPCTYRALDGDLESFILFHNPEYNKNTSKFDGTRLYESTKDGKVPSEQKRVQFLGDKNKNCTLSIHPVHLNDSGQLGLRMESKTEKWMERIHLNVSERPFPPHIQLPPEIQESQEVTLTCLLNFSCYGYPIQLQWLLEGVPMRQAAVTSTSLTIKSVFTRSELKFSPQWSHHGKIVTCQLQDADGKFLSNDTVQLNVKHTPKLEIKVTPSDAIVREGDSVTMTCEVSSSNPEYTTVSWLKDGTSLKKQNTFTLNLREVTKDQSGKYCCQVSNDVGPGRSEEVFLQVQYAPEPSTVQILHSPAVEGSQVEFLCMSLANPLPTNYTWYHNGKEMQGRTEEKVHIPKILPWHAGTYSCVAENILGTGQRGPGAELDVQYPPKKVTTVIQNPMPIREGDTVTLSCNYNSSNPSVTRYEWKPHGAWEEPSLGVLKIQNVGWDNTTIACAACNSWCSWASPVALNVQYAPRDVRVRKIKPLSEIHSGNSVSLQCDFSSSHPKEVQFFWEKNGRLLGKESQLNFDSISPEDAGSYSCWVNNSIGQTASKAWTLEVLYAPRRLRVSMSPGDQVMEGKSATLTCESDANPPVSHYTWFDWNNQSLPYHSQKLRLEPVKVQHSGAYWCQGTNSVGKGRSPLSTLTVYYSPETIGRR

Row | Binder | Kd | koff | kon
15 | B1 | 0.846 nM | 0.000318 s⁻¹ | 376000 M⁻¹ s⁻¹
16 | B4 | 1.84 nM | 0.000112 s⁻¹ | 60900 M⁻¹ s⁻¹
17 | B5 | 15.8 nM | 0.000985 s⁻¹ | 62500 M⁻¹ s⁻¹
18 | B10 | 0.219 nM | 0.000195 s⁻¹ | 888000 M⁻¹ s⁻¹
19 | B11 | 3.57 nM | 0.000145 s⁻¹ | 40500 M⁻¹ s⁻¹
20 | B12 | 0.166 nM | 4.19e-05 s⁻¹ | 252000 M⁻¹ s⁻¹
21 | B15 | 11.3 nM | 0.00098 s⁻¹ | 86900 M⁻¹ s⁻¹
22 | B13 | 5.52 nM | 0.00164 s⁻¹ | 297000 M⁻¹ s⁻¹
23 | B16 | 14.2 nM | 0.00101 s⁻¹ | 71300 M⁻¹ s⁻¹
